B1: CCNC (protein, UniProt P24863 1-283, looked up)
Cyclin-C: MAGNFWQSSHYLQWILDKQDLLKERQKDLKFLSEEEYWKLQIFFTNVIQALGEHLKLRQQVIATATVYFKRFYARYSLKSIDPVLMAPTCVFLASKVEEFGVVSNTRLIAAATSVLKTRFSYAFPKEFPYRMNHILECEFYLLELMDCCLIVYHPYRPLLQYVQDMGQEDMLLPLAWRIVNDTYRTDLCLLYPPFMIALACLHVACVVQQKDARQWFAELSVDMEKILEIIRVILKLYEQWKNFDERKEMATILSKMPKPKPPPNSEGEQGPNGSQNSSYSQS
B2: ZNF488 (protein, UniProt Q96MN9 1-340, looked up)
Zinc finger protein 488: MPEWPPCLSVAPALVITMAAGKGAPLSPSAENRWRLSEPELGRGCKPVLLEKTNRLGPEAAVGRAGRDVGSAELALLVAPGKPRPGKPLPPKTRGEQRQSAFTELPRMKDRQVDAQAQEREHDDPTGQPGAPQLTQNIPRGPAGSKVFSVWPSGARSEQRSAFSKPTKRPAERPELTSVFPAGESADALGELSGLLNTTDLACWGRLSTPKLLVGDLWNLQALPQNAPLCSTFLGAPTLWLEHTQAQVPPPSSSSTTSWALLPPTLTSLGLSTQNWCAKCNLSFRLTSDLVFHMRSHHKKEHAGPDPHSQKRREEALACPVCQEHFRERHHLSRHMTSHS
B3: ZNF213 (protein, UniProt O14771 1-459, looked up)
Zinc finger protein 213: MAAPLEAQDQAPGEGEGLLIVKVEDSSWEQESAQHEDGRDSEACRQRFRQFCYGDVHGPHEAFSQLWELCCRWLRPELRTKEQILELLVLEQFLTVLPGEIQGWVREQHPGSGEEAVALVEDLQKQPVKAWRQDVPSEEAEPEAAGRGSQATGPPPTVGARRRPSVPQEQHSHSAQPPALLKEGRPGETTDTCFVSGVHGPVALGDIPFYFSREEWGTLDPAQRDLFWDIKRENSRNTTLGFGLKGQSEKSLLQEMVPVVPGQTGSDVTVSWSPEEAEAWESENRPRAALGPVVGARRGRPPTRRRQFRDLAAEKPHSCGQCGKRFRWGSDLARHQRTHTGEKPHKCPECDKSFRSSSDLVRHQGVHTGEKPFSCSECGKSFSRSAYLADHQRIHTGEKPFGCSDCGKSFSLRSYLLDHRRVHTGERPFGCGECDKSFKQRAHLIAHQSLHAKMAQPVG
B4: ZNF484 (protein, UniProt Q5JVG2 1-852, looked up)
Zinc finger protein 484: MTKSLESVSFKDVTVDFSRDEWQQLDLAQKSLYREVMLENYFNLISVGCQVPKPEVIFSLEQEEPCMLDGEIPSQSRPDGDIGFGPLQQRMSEEVSFQSEININLFTRDDPYSILEELWKDDEHTRKCGENQNKPLSRVVFINKKTLANDSIFEYKDIGEIVHVNTHLVSSRKRPHNCNSCGKNLEPIITLYNRNNATENSDKTIGDGDIFTHLNSHTEVTACECNQCGKPLHHKQALIQQQKIHTRESLYLFSDYVNVFSPKSHAFAHESICAEEKQHECHECEAVFTQKSQLDGSQRVYAGICTEYEKDFSLKSNRQKTPYEGNYYKCSDYGRAFIQKSDLFRCQRIHSGEKPYEYSECEKNLPQNSNLNIHKKIHTGGKHFECTECGKAFTRKSTLSMHQKIHTGEKPYVCTECGKAFIRKSHFITHERIHTGEKPYECSDCGKSFIKKSQLHVHQRIHTGENPFICSECGKVFTHKTNLIIHQKIHTGERPYICTVCGKAFTDRSNLIKHQKIHTGEKPYKCSDCGKSFTWKSRLRIHQKCHTGERHYECSECGKAFIQKSTLSMHQRIHRGEKPYVCTECGKAFFHKSHFITHERIHTGEKPYECSICGKSFTKKSQLHVHQQIHTGEKPYRCAECGKAFTDRSNLFTHQKIHTGEKPYKCSDCGKAFTRKSGLHIHQQSHTGERHYECSECGKAFARKSTLIMHQRIHTGEKPYICNECGKSFIQKSHLNRHRRIHTGEKPYECSDCGKSFIKKSQLHEHHRIHTGEKPYICAECGKAFTIRSNLIKHQKIHTKQKPYKCSDLGKALNWKPQLSMPQKSDNGEVECSMPQLWCGDSEGDQGQLSSI
B5: ZNF483 (protein, UniProt Q8TF39 1-744, looked up)
Zinc finger protein 483: MQAVVPLNKMTAISPEPQTLASTEQNEVPRVVTSGEQEAILRGNAADAESFRQRFRWFCYSEVAGPRKALSQLWELCNQWLRPDIHTKEQILELLVFEQFLTILPGEIRIWVKSQHPESSEEVVTLIEDLTQMLEEKDPVSQDSTVSQEENSKEDKMVTVCPNTESCESITLKDVAVNFSRGEWKKLEPFQKELYKEVLLENLRNLEFLDFPVSKLELISQLKWVELPWLLEEVSKSSRLDESALDKIIERCLRDDDHGLMEESQQYCGSSEEDHGNQGNSKGRVAQNKTLGSGSRGKKFDPDKSPFGHNFKETSDLIKHLRVYLRKKSRRYNESKKPFSFHSDLVLNRKEKTAGEKSRKSNDGGKVLSHSSALTEHQKRQKIHLGDRSQKCSKCGIIFIRRSTLSRRKTPMCEKCRKDSCQEAALNKDEGNESGEKTHKCSKCGKAFGYSASLTKHRRIHTGEKPYMCNECGKAFSDSSSLTPHHRTHSGEKPFKCDDCGKGFTLSAHLIKHQRIHTGEKPYKCKDCGRPFSDSSSLIQHQRIHTGEKPYTCSNCGKSFSHSSSLSKHQRIHTGEKPYKCGECGKAFRQNSCLTRHQRIHTGEKPYLCNDCGMTFSHFTSVIYHQRLHSGEKPYKCNQCEKAFPTHSLLSRHQRIHTGVKPYKCKECGKSFSQSSSLNEHHRIHTGEKPYECNYCGATFSRSSILVEHLKIHTGRREYECNECEKTFKSNSGLIRHRGFHSAE
B6: ZNF501 (protein, UniProt Q96CX3 1-271, looked up)
Zinc finger protein 501: MNSSQISLRMKHGRVNMQKKPSKCSECGKFFTQRSSLTQHQRIHRGEKPYVCSECGSCFRKQSNLTQHLRIHTGEKPYKCNECEKAFQTKAILVQHLRIHTGEKPYKCNECGKAFCQSPSLIKHQRIHTGEKPYKCTECGKAFSQSICLTRHQRSHSGDKPFKCNECGKAFNQSACLMQHQRIHSGEKPYTCTECGKAFTQNSSLVEHERTHTGEKLYKCSECEKTFRKQAHLSEHYRIHTGEKPYECVGCGKSFRHSSALLRHQRLHAGE
B7: ZNF250 (protein, UniProt P15622 1-560, looked up)
Zinc finger protein 250: MAAARLLPVPAGPQPLSFQAKLTFEDVAVLLSQDEWDRLCPAQRGLYRNVMMETYGNVVSLGLPGSKPDIISQLERGEDPWVLDRKGAKKSQGLWSDYSDNLKYDHTTACTQQDSLSCPWECETKGESQNTDLSPKPLISEQTVILGKTPLGRIDQENNETKQSFCLSPNSVDHREVQVLSQSMPLTPHQAVPSGERPYMCVECGKCFGRSSHLLQHQRIHTGEKPYVCSVCGKAFSQSSVLSKHRRIHTGEKPYECNECGKAFRVSSDLAQHHKIHTGEKPHECLECRKAFTQLSHLIQHQRIHTGERPYVCPLCGKAFNHSTVLRSHQRVHTGEKPHRCNECGKTFSVKRTLLQHQRIHTGEKPYTCSECGKAFSDRSVLIQHHNVHTGEKPYECSECGKTFSHRSTLMNHERIHTEEKPYACYECGKAFVQHSHLIQHQRVHTGEKPYVCGECGHAFSARRSLIQHERIHTGEKPFQCTECGKAFSLKATLIVHLRTHTGEKPYECNSCGKAFSQYSVLIQHQRIHTGEKPYECGECGRAFNQHGHLIQHQKVHRKL
B8: ZNF473 (protein, UniProt Q8WTR7 1-871, looked up)
Zinc finger protein 473: MAEEFVTLKDVGMDFTLGDWEQLGLEQGDTFWDTALDNCQDLFLLDPPRPNLTSHPDGSEDLEPLAGGSPEATSPDVTETKNSPLMEDFFEEGFSQEIIEMLSKDGFWNSNFGEACIEDTWLDSLLGDPESLLRSDIATNGESPTECKSHELKRGLSPVSTVSTGEDSMVHNVSEKTLTPAKSKEYRGEFFSYSDHSQQDSVQEGEKPYQCSECGKSFSGSYRLTQHWITHTREKPTVHQECEQGFDRNASLSVYPKTHTGYKFYVCNEYGTTFSQSTYLWHQKTHTGEKPCKSQDSDHPPSHDTQPGEHQKTHTDSKSYNCNECGKAFTRIFHLTRHQKIHTRKRYECSKCQATFNLRKHLIQHQKTHAAKTTSECQECGKIFRHSSLLIEHQALHAGEEPYKCNERGKSFRHNSTLKIHQRVHSGEKPYKCSECGKAFHRHTHLNEHRRIHTGYRPHKCQECVRSFSRPSHLMRHQAIHTAEKPYSCAECKETFSDNNRLVQHQKMHTVKTPYECQECGERFICGSTLKCHESVHAREKQGFFVSGKILDQNPEQKEKCFKCNKCEKTFSCSKYLTQHERIHTRGVKPFECDQCGKAFGQSTRLIHHQRIHSRVRLYKWGEQGKAISSASLIKLQSFHTKEHPFKCNECGKTFSHSAHLSKHQLIHAGENPFKCSKCDRVFTQRNYLVQHERTHARKKPLVCNECGKTFRQSSCLSKHQRIHSGEKPYVCDYCGKAFGLSAELVRHQRIHTGEKPYVCQECGKAFTQSSCLSIHRRVHTGEKPYRCGECGKAFAQKANLTQHQRIHTGEKPYSCNVCGKAFVLSAHLNQHLRVHTQETLYQCQRCQKAFRCHSSLSRHQRVHNKQQYCL
B9: CBX2 (protein, UniProt Q14781 1-532, looked up)
Chromobox protein homolog 2: MEELSSVGEQVFAAECILSKRLRKGKLEYLVKWRGWSSKHNSWEPEENILDPRLLLAFQKKEHEKEVQNRKRGKRPRGRPRKLTAMSSCSRRSKLKEPDAPSKSKSSSSSSSSTSSSSSSDEEDDSDLDAKRGPRGRETHPVPQKKAQILVAKPELKDPIRKKRGRKPLPPEQKATRRPVSLAKVLKTARKDLGAPASKLPPPLSAPVAGLAALKAHAKEACGGPSAMATPENLASLMKGMASSPGRGGISWQSSIVHYMNRMTQSQAQAASRLALKAQATNKCGLGLDLKVRTQKGELGMSPPGSKIPKAPSGGAVEQKVGNTGGPPHTHGASRVPAGCPGPQPAPTQELSLQVLDLQSVKNGMPGVGLLARHATATKGVPATNPAPGKGTGSGLIGASGATMPTDTSKSEKLASRAVAPPTPASKRDCVKGSATPSGQESRTAPGEARKAATLPEMSAGEESSSSDSDPDSASPPSTGQNPSVSVQTSQDWKPTRSLIEHVFVTDVTANLITVTVKESPTSVGFFNLRHY
B10: ZNF41 (protein, UniProt P51814 1-821, looked up)
Zinc finger protein 41: MAANGDSPPWSPALAAEGRGSSCEVRRERTPEARIHSVKRYPDLSPGPKGRSSADHAALNSIVSLQASVSFEDVTVDFSKEEWQHLDPAQRRLYWDVTLENYSHLLSVGYQIPKSEAAFKLEQGEGPWMLEGEAPHQSCSGEAIGKMQQQGIPGGIFFHCERFDQPIGEDSLCSILEELWQDNDQLEQRQENQNNLLSHVKVLIKERGYEHKNIEKIIHVTTKLVPSIKRLHNCDTILKHTLNSHNHNRNSATKNLGKIFGNGNNFPHSPSSTKNENAKTGANSCEHDHYEKHLSHKQAPTHHQKIHPEEKLYVCTECVMGFTQKSHLFEHQRIHAGEKSRECDKSNKVFPQKPQVDVHPSVYTGEKPYLCTQCGKVFTLKSNLITHQKIHTGQKPYKCSECGKAFFQRSDLFRHLRIHTGEKPYECSECGKGFSQNSDLSIHQKTHTGEKHYECNECGKAFTRKSALRMHQRIHTGEKPYVCADCGKAFIQKSHFNTHQRIHTGEKPYECSDCGKSFTKKSQLHVHQRIHTGEKPYICTECGKVFTHRTNLTTHQKTHTGEKPYMCAECGKAFTDQSNLIKHQKTHTGEKPYKCNGCGKAFIWKSRLKIHQKSHIGERHYECKDCGKAFIQKSTLSVHQRIHTGEKPYVCPECGKAFIQKSHFIAHHRIHTGEKPYECSDCGKCFTKKSQLRVHQKIHTGEKPNICAECGKAFTDRSNLITHQKIHTREKPYECGDCGKTFTWKSRLNIHQKSHTGERHYECSKCGKAFIQKATLSMHQIIHTGKKPYACTECQKAFTDRSNLIKHQKMHSGEKRYKASD

Test system: HEK293FT cells transfected with TF library
Assay: Screening of TF condensates based on fluorescent puncta
Type: cell-based
Conditions: Figure 1B numerical data; TF library screen, one value per transcriptional factor
How it was run: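 Each TF construct was introduced into HEK293FT cells using PEI at 4.8 μg/ml; glucose deprivation versus normal medium lasted 12 h. Automated confocal-style imaging of tagged TF staining, 50 fields per well, gave the puncta data.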

Molecule | Z score of condensed fraction
B1 | -0.5132
B2 | -0.1473
B3 | -0.4697
B4 | -0.5495
B5 | 2.279
B6 | -1.032
B7 | -1.178
B8 | -0.9289
B9 | 1.201
B10 | -0.7537

From paper PMC11574045, “A cofactor-induced repressive type of transcription factor condensation can be induced by synthetic peptides to suppress tumorigenesis” (The EMBO Journal, 2024)
